# Paper PMC11349869
# Substrate: O=C(O)O
# Test: cells, lysate or membranes
# Conditions: pH 7.5, 20 mM bis-tris propane-H2SO4, 0.5 mM glucose, 1 µM CaCl2, induced with 100 µM IPTG, labelled compound
row,Protein,Km
1,BCT1 CmpCD fusion (GN128) (Synechococcus elongatus PCC 7942 = FACHB-805) (protein) chain 1: CGNPPSSSGGGTSSTTQPTAAGASDLEVKTIKLGYIPIFEAAPLIIGREKGFFAKYGLDVEVSKQASWAAARDNVILGSAGGGIDGGQWQMPMPALLTEGAISNGQKVPMYVLACLSTQGNGIAVSNQLKAQNLGLKLAPNRDFILNYPQTSGRKFKASYTFPNANQDFWIRYWFAAGGIDPDKDIELLTVPSAETLQNMRNGTIDCFSTGDPWPSRIAKDDIGYQAALTGQMWPYHPEEFLALRADWVDKHPKATLALLMGLMEAQQWCDQKANRAEMAKILSGRNFFNVPVSILQPILEGQIKVGADGKDLNNFDAGPLFWKSPRGSVSYPYKGLTLWFLVESIRWGFNKQVLPDIAAAQKLNDRVTREDLWQEAAKKLGVPAADIPTGSTRGTETFFDGITYNPDSPQAYLQSLKIKRA chain 2: MVTARETRRNGSRPSGLKKWRQKLDGILLPLAGILGFLIIWQIFSSSGATRLPGPLSLFTEERTRELLLYPFLDRGGLDKGLFWQTIASLTRVAQGFSIAAIIGISVGILVGLNRQLNAMLDPLFQFLRMIAPLAWVPIALVAFQQNQPAAIFVIFITAVWPILINTAEGVRQIPQDYNNVARVLRMSKSKYLMKVVLPAALPYIFTGLRIAIGLSWLAIIAAEIVMSGIVGIGFFIWDAYQQNYVSDIILAVIYIGAVGLLLDRFVAWLQRWILRNM,120 ± 20 µM
2,BCT1 CmpCD fusion with tags (GM319) (Synechococcus elongatus PCC 7942 = FACHB-805) (protein) chain 1: CGNPPSSSGGGTSSTTQPTAAGASDLEVKTIKLGYIPIFEAAPLIIGREKGFFAKYGLDVEVSKQASWAAARDNVILGSAGGGIDGGQWQMPMPALLTEGAISNGQKVPMYVLACLSTQGNGIAVSNQLKAQNLGLKLAPNRDFILNYPQTSGRKFKASYTFPNANQDFWIRYWFAAGGIDPDKDIELLTVPSAETLQNMRNGTIDCFSTGDPWPSRIAKDDIGYQAALTGQMWPYHPEEFLALRADWVDKHPKATLALLMGLMEAQQWCDQKANRAEMAKILSGRNFFNVPVSILQPILEGQIKVGADGKDLNNFDAGPLFWKSPRGSVSYPYKGLTLWFLVESIRWGFNKQVLPDIAAAQKLNDRVTREDLWQEAAKKLGVPAADIPTGSTRGTETFFDGITYNPDSPQAYLQSLKIKRA chain 2: MVTARETRRNGSRPSGLKKWRQKLDGILLPLAGILGFLIIWQIFSSSGATRLPGPLSLFTEERTRELLLYPFLDRGGLDKGLFWQTIASLTRVAQGFSIAAIIGISVGILVGLNRQLNAMLDPLFQFLRMIAPLAWVPIALVAFQQNQPAAIFVIFITAVWPILINTAEGVRQIPQDYNNVARVLRMSKSKYLMKVVLPAALPYIFTGLRIAIGLSWLAIIAAEIVMSGIVGIGFFIWDAYQQNYVSDIILAVIYIGAVGLLLDRFVAWLQRWILRNM,170 ± 30 µM
